Source: US20220411533A1 (Boehringer Ingelheim, published 2022)

T1: human Trop2 recombinantly expressed on HEK293 cells (full-length, C-terminal Myc-DDK-tag) (human, UniProt P09758 27-323)
T1 construct: UniProt P09758 is printed for human TROP2; also called trophoblast cell-surface antigen 2; not shown: C-terminal Myc-DDK-tag of the Origene construct #RC202519
T1 sequence: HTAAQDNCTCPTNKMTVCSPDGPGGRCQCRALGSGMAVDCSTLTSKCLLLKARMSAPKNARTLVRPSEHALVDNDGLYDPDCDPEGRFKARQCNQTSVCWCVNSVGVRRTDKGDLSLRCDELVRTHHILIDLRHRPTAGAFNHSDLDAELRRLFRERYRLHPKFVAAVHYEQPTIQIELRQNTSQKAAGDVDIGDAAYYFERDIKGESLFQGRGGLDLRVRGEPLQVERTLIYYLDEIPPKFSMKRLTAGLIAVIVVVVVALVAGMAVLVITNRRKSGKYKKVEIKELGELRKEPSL

B1: Trop2#1 (antibody, V domains shown)
VH: EVQLQQSGPELLKPGASVKISCKASGYTFTDYTMHWVKQSHGKSLEWIGGIYPNYGDTNYNEKFKDKATLTVDESSSTAYMELRSLTSEDSAVYYCSRKTVLLRLRYFDVWGTGTTVTVSS
VL: DIQMTQSPASLSASVGETVTITCRASGNIHNYLAWYQQKQGKSPQLLVYNAITLADGVPSRFSGSGSGTQYSLKINSLQPEDFGSYYCQHFWSTPFTFGSGTKLEIK
B2: Trop2#5 (antibody, V domains shown)
VH: EVQLQQSGPDLVKPGASVKMSCKASGFIFTDYYMNWVKQSHGKSLEWIGYIYPNNGATAYNQKFKGKATLTVDKSSSTAYMELRSLTSEDSAVYYCARESDFYAMDYWGQGTSVTVSS
VL: DVVMTQTPLSLPVSLGDQASISCRSSQSLVHSHGNIYLHWYLQKPGLSPKLLIFKVSNRFSGVPDRFSGSGSGTDFTLKISRVEAEDLGVYFCSQSTHVWTFGGGTKLEIK
B3: Trop2#7 (antibody, V domains shown)
VH: EVQLQQSGPELVKPGASVKMSCRASGYTFTSYAMHWVKQKPGQGLEWIGYINPYNGGTKYNEKFKGRATLTSDKSSSTAYMELSSLTSEDSAVYYCAREGIYYGAWFAYWGQGTLVTVSA
VL: DIQMTQSSSSFSVSLGDRVTITCKASEDIYNRLAWFQQKPGNAPRLLISGATSLETGVPSRFRGSRSGKDYTLSITSLQTEDVATYYCQQYWSTWTFGGGTKLEIK

Molecular target: T1, human Trop2 recombinantly expressed on …
Assay: flow cytometry based Scatchard method on HEK293 cells expressing Trop2

Compared with B1, B2 is 3.7-fold lower in Kd: 2.2 nM for the first, 0.6 nM for the second. The second binds more tightly here.

Work on B3 yielded a Kd of 0.4 nM.
